{"source": "patent US20210301005A1", "about": "(Genentech, published 2021)", "binders": {"B1": {"name": "h2A10.v2 (antibody, human IgG1, kappa, N297G)", "heavy": "not shown", "light": "DIQLTQSPSSLSASVGDRVTITCRASQSVSISRFNLMHWYQHKPGKQPKLLIYRASNLASGIPSRFSGSGSGTDFTLTISSLQPEDFATYYCQHSRESPWTFGGGTKVEIKRTVAAPSVFIFPPSDEQLKSGTASVVCLLNNFYPREAKVQWKVDNALQSGNSQESVTEQDSKDSTYSLSSTLTLSKADYEKHKVYACEVTHQGLSSPVTKSFNRGEC", "notes": "also called humanized 2A10 version 2"}, "B2": {"name": "2A10 (antibody, V domains shown)", "VH": "EVQLVESGGGLVQPKGSLKLSCAASGFDFNSYGMSWVRQAPGKGLDLVADIVSKTYNYTTYYSDSVKDRFTISRDDSQSMVYLQMDNLKTEDTALYYCTVAPGGSFDYWGQGVMVTVSS", "VL": "DIVLTQSPALAVSLGQRATISCRASQSVSISRFNLMHWYQHKPGQQPKLLIYRASNLASGIPARFSGSGSGTDFTLTINPVQADDLATYYCQHSRESPWTFGGGTKLEIK", "notes": "anti-TGFβ3; also called rat 2A10; r2A10"}}, "key": {"[1]": {"biological_target": "T1, human TGFβ2, mature receptor-binding domain (human, UniProt P09858 303-414 (pig entry), The mature TGFβ2 is a disulfide-linked homodimer of this 112-residue chain. The 4A11 epitope spans both monomers (p-1207).)", "T1 construct": "Peprotech; also called TGFb2", "T1 sequence": "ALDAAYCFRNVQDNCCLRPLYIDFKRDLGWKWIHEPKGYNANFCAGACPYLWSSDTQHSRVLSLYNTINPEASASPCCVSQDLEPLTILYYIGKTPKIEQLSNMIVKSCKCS", "assay": "BIAcore T200", "method_in_brief": "(§1)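 SPR kinetics on protein A-captured humanized 2A10 variants (~100 RU), with 3-fold serial dilutions of TGFβ (0.02 nM to 5 nM) injected in HBS-EP, pH 7.4, at 25° C and 50 μl/min. kon and koff from a 1:1 Langmuir fit; KD = koff/kon.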"}, "[2]": {"biological_target": "T2, human TGFβ3, mature dimeric form (human, UniProt P10600 301-412)", "T2 construct": "Peprotech, expressed in E. coli; also called TGFb3", "T2 sequence": "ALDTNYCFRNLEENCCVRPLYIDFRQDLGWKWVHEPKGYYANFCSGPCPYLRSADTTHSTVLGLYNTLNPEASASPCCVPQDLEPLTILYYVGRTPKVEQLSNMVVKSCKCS", "assay": "BIAcore T200", "method_in_brief": "as §1"}, "[3]": {"biological_target": "T1, human TGFβ2, mature receptor-binding …", "assay": "BIAcore T200", "experimental": "(§2) For binding affinity determinations of all humanized 2A10 antibodies, Surface Plasmon Resonance (SPR) measurement with a BIAcore™-T200 instrument was used. Briefly, series S CM5 biosensor chip with protein A was first applied to capture each humanized 2A10 variant to achieve approximately 100 response units (RU) on each flow cell, following by injection of 3-fold serial dilutions of human TGFβ1, TGFβ2 or TGFβ3 (0.02 nM to 5 nM) in HBS-EP buffer (0.01M HEPES pH 7.4, 0.15M NaCl, 3 mM EDTA and 0.05% v/v surfactant P20) at 25° C. with a flow rate of 50 μl/min for kinetics measurement. Association rates (ko.) and dissociation rates (koff) were calculated using a simple one-to-one Langmuir binding model (BIAcore T200 evaluation software version 2.0) to determine the equilibrium dissociation constant (KD), which was calculated as the ratio koff/kₒₙ.", "remark": "listed apart in the source"}, "[4]": {"biological_target": "T3, human TGFβ1, mature receptor-binding domain (human, UniProt P01137 279-390)", "T3 construct": "Peprotech; also called TGFb1", "T3 sequence (P01137 279-390 limits assumed)": "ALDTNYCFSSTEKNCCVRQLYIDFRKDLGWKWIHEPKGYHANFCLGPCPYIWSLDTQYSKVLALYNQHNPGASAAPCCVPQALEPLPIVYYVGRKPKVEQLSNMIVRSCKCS", "assay": "BIAcore T200", "experimental": "as §2"}, "[5]": {"biological_target": "T2, human TGFβ3, mature dimeric form", "assay": "BIAcore T200", "experimental": "as §2", "remark": "listed apart in the source"}, "[6]": {"biological_target": "T1, human TGFβ2, mature receptor-binding …", "assay": "cell-based or functional assay"}, "[7]": {"biological_target": "T3, human TGFβ1, mature receptor-binding …", "assay": "cell-based or functional assay"}, "[8]": {"biological_target": "T2, human TGFβ3, mature dimeric form", "assay": "cell-based or functional assay"}, "[9]": {"biological_target": "T1, human TGFβ2, mature receptor-binding …", "assay": "cell-based or functional assay", "remark": "listed apart in the source"}, "[10]": {"biological_target": "T3, human TGFβ1, mature receptor-binding …", "assay": "cell-based or functional assay", "remark": "listed apart in the source"}, "[11]": {"biological_target": "T2, human TGFβ3, mature dimeric form", "assay": "cell-based or functional assay", "remark": "listed apart in the source"}, "[12]": {"biological_target": "T2, human TGFβ3, mature dimeric form", "assay": "cell-based or functional assay", "remark": "listed apart in the source"}, "[13]": {"biological_target": "T1, human TGFβ2, mature receptor-binding …", "assay": "cell-based or functional assay", "remark": "listed apart in the source"}, "[14]": {"biological_target": "T3, human TGFβ1, mature receptor-binding …", "assay": "cell-based or functional assay", "remark": "listed apart in the source"}, "[15]": {"biological_target": "T2, human TGFβ3, mature dimeric form", "assay": "cell-based or functional assay", "remark": "listed apart in the source"}, "[16]": {"biological_target": "T2, human TGFβ3, mature dimeric form", "assay": "SPR"}, "[17]": {"biological_target": "T1, human TGFβ2, mature receptor-binding …", "assay": "BIAcore T200", "experimental": "as §2", "remark": "listed apart in the source"}, "[18]": {"biological_target": "T2, human TGFβ3, mature dimeric form", "assay": "BIAcore T200", "experimental": "as §2", "remark": "listed apart in the source"}, "[19]": {"biological_target": "T1, human TGFβ2, mature receptor-binding …", "assay": "cell-based or functional assay", "remark": "listed apart in the source"}, "[20]": {"biological_target": "T3, human TGFβ1, mature receptor-binding …", "assay": "cell-based or functional assay", "remark": "listed apart in the source"}, "[21]": {"biological_target": "T2, human TGFβ3, mature dimeric form", "assay": "cell-based or functional assay", "remark": "listed apart in the source"}, "[22]": {"biological_target": "T3, human TGFβ1, mature receptor-binding …", "assay": "BIAcore T200; humanization BIAcore study (Tables 9 and 11), bound only"}, "[23]": {"biological_target": "T3, human TGFβ1, mature receptor-binding …", "assay": "SPR; Table 4 screening SPR, affinity at 25 C; no blocking of TGFb1 (>500 nM at 37 C)"}, "[24]": {"biological_target": "T1, human TGFβ2, mature receptor-binding …", "assay": "SPR"}, "[25]": {"biological_target": "T2, human TGFβ3, mature dimeric form", "assay": "SPR", "remark": "listed apart in the source"}}, "note": "Like-named read-outs stand apart in the source and are kept apart here."}
{"binder": "B1", "values": [{"measurement": "Kd", "setting": "[1]", "result": 0.314, "unit": "nM"}, {"measurement": "Kd", "setting": "[2]", "result": 0.0013, "unit": "nM"}, {"measurement": "Kd", "setting": "[3]", "result": 0.314, "unit": "nM"}, {"measurement": "Kd", "setting": "[4]", "result": "> 5", "unit": "nM"}, {"measurement": "Kd", "setting": "[5]", "result": 0.0013, "unit": "nM"}, {"measurement": "HEKBlue TGFβ blocking IC50", "setting": "[6]", "result": "> 200", "unit": "nM"}, {"measurement": "HEKBlue TGFβ blocking IC50", "setting": "[7]", "result": "> 200", "unit": "nM"}, {"measurement": "HEKBlue TGFβ blocking IC50", "setting": "[8]", "result": 0.01, "unit": "nM"}, {"measurement": "HEKBlue TGFβ blocking IC50", "setting": "[9]", "result": "> 200", "unit": "nM"}, {"measurement": "HEKBlue TGFβ blocking IC50", "setting": "[10]", "result": "> 200", "unit": "nM"}, {"measurement": "HEKBlue TGFβ blocking IC50", "setting": "[11]", "result": 0.01, "unit": "nM"}]}
{"binder": "B2", "values": [{"measurement": "cell-based IC50", "setting": "[12]", "result": "< 0.25", "unit": "nM"}, {"measurement": "Blocking IC50", "setting": "[13]", "result": 193, "unit": "nM"}, {"measurement": "Blocking IC50", "setting": "[14]", "result": "> 500", "unit": "nM"}, {"measurement": "Blocking IC50", "setting": "[15]", "result": 0.02, "unit": "nM"}, {"measurement": "Kd", "setting": "[16]", "result": "< 0.01", "unit": "nM"}, {"measurement": "Kd", "setting": "[17]", "result": 0.0628, "unit": "nM"}, {"measurement": "Kd", "setting": "[18]", "result": 0.0012, "unit": "nM"}, {"measurement": "HEKBlue TGFβ blocking IC50", "setting": "[19]", "result": 70, "unit": "nM"}, {"measurement": "HEKBlue TGFβ blocking IC50", "setting": "[20]", "result": "> 200", "unit": "nM"}, {"measurement": "HEKBlue TGFβ blocking IC50", "setting": "[21]", "result": 0.01, "unit": "nM"}, {"measurement": "Kd", "setting": "[1]", "result": 0.0628, "unit": "nM"}, {"measurement": "Kd", "setting": "[2]", "result": 0.0012, "unit": "nM"}, {"measurement": "Kd", "setting": "[22]", "result": "> 5", "unit": "nM"}, {"measurement": "Kd", "setting": "[23]", "result": 1.6, "unit": "nM"}, {"measurement": "HEKBlue TGFβ blocking IC50", "setting": "[9]", "result": 70, "unit": "nM"}, {"measurement": "HEKBlue TGFβ blocking IC50", "setting": "[10]", "result": "> 200", "unit": "nM"}, {"measurement": "HEKBlue TGFβ blocking IC50", "setting": "[11]", "result": 0.01, "unit": "nM"}, {"measurement": "Kd", "setting": "[24]", "result": 0.046, "unit": "nM"}, {"measurement": "Kd", "setting": "[25]", "result": "< 0.002", "unit": "nM"}]}
